In patent US20110097328A1 (MIT, published 2011):

Columns and labels:
[1] = molecular target: T1, PARP12-GFP fusion protein (UniProt Q9H0J9 1-701); test: co-immunoprecipitation: anti-GFP IP from lysate of transfected HeLa S3 cells (0 or 20 nM pateamine A, 30 min), immunoblot with anti-LSM1
T1 construct: Expressed in HeLa S3 cells from pEGFP-C1; not shown: EGFP (green fluorescent protein) encoded by vector pEGFP-C1, located N-terminal (5') to the PARP
T1 sequence (looked up): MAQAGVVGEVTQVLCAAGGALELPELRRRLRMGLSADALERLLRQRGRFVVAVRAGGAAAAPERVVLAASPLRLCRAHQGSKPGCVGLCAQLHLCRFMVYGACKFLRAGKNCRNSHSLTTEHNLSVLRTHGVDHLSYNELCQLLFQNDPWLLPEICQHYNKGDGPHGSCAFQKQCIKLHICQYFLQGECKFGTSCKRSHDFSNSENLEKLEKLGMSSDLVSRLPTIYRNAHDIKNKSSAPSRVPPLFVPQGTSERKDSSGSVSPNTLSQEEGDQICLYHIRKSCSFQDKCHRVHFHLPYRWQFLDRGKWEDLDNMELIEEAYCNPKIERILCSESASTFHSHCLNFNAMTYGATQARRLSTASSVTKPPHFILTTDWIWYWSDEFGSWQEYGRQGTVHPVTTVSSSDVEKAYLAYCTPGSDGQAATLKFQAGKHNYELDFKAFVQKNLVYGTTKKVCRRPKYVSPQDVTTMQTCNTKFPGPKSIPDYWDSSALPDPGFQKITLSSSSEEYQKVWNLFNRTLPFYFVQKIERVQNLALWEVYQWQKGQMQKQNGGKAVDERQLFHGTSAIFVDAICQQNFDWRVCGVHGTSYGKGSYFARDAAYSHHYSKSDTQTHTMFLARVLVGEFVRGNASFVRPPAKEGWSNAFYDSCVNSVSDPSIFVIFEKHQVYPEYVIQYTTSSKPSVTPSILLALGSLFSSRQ
Description: (§1) FIG. 25C is a picture of several immunoblots of a 4-12% SDS-PAGE gel containing proteins immunoprecipitated with an anti-GFP antibody from lysate from HeLa S3 cells transfected with a pEGFP-C1 plasmid expressing GFP, PARP5A-GFP, PARP12-GFP, PARP13-GFP, PARP13.1-GFP, or PARP15-GFP following treatment with 0 or 20 nM pateamine A for 30 minutes. The immunoblots were developed using one of the following antibodies: anti-Agog, anti-DDX6, anti-LSM1, anti-PABP, anti-FMRP, anti-eIF1A, anti-eIF2a, anti-eIF3η, anti-eIF4A1, and anti-eIF4E.
(§2) Data from a separate set of experiments indicate that several stress granule-associated proteins bind to the PARP13-GFP, PARP12-GFP, and PARP5A-GFP fusion proteins. In these experiments, HeLa S3 cells were transfected with a pEGFP-C1 plasmid encoding a PARP13-GFP, PARP12-GFP, or PARP5A-GFP fusion protein and treated with 0 or 20 nM pateamine A for 30 minutes. Cell lysates from the cells were immunoprecipitated using an anti-GFP antibody and the immunoprecipitated proteins were electrophoresed using 4-12% SDS-PAGE. The resulting proteins were transferred to a membrane and immunoblotted using commercially-available antibodies specific for different stress granule-associated proteins: Ago2, DDX6, LSM1, PABP, FMRP, eIF1A, eIF2α, eIF3η, eIF4A1, and eIF4E.

[2] = molecular target: T2, PARP5A-GFP fusion protein (UniProt O95271 1-1327); test: as above
T2 construct: Expressed in HeLa S3 cells from pEGFP-C1; also called tankyrase 1-GFP; not shown: EGFP (green fluorescent protein) encoded by vector pEGFP-C1, located N-terminal (5') to the PARP
T2 sequence (looked up): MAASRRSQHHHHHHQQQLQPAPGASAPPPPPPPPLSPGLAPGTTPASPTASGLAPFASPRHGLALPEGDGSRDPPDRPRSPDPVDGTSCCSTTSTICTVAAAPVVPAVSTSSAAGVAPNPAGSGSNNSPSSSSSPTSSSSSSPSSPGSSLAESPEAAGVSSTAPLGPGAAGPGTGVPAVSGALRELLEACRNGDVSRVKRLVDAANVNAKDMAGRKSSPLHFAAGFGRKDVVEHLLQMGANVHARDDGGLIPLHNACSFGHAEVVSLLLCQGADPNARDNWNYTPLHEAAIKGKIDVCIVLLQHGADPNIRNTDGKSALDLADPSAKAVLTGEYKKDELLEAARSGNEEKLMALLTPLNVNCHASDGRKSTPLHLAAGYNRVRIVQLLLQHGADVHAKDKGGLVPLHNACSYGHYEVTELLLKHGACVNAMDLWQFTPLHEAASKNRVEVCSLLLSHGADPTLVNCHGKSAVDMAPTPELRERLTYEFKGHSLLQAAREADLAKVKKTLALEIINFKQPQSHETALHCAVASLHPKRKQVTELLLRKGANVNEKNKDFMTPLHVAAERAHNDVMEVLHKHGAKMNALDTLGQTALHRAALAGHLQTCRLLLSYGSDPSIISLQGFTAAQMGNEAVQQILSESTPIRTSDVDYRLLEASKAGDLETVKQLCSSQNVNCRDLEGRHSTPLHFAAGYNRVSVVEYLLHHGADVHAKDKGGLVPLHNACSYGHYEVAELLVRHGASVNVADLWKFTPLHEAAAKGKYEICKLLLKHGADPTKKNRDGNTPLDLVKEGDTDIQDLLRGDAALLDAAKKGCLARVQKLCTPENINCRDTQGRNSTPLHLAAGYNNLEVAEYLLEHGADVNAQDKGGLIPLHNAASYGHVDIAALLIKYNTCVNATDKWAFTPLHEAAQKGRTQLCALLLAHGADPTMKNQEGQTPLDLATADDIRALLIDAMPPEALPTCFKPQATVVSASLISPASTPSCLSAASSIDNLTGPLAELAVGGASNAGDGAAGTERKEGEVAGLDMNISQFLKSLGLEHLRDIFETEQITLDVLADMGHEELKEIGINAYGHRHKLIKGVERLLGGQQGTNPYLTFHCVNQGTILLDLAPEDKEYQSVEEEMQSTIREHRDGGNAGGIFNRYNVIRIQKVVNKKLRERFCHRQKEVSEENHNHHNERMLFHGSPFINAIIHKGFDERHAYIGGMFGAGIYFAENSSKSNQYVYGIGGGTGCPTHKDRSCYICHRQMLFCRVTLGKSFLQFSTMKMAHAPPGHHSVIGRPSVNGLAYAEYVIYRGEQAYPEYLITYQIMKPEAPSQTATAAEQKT
Description: as §1, §2

B1: LSM1 (other, human (HeLa S3 cells), UniProt O15116 1-133, looked up)
single chain: MNYMPGTASLIEDIDKKHLVLLRDGRTLIGFLRSIDQFANLVLHQTVERIHVGKKYGDIPRGIFVVRGENVVLLGEIDLEKESDTPLQQVSIEEILEEQRVEQQTKLEAEKLKVQALKDRGLSIPRADTLDEY
notes: endogenous protein in the cell lysate; member of the group m8
- binding result [1]: no binding
- binding result [2]: no binding
